The data set relates to Escherichia coli TOP10. The data set can be described thus: shrunken log2 fold change of peptide-encoding DNA abundance (4.5 h post-induction vs induction); higher = less antimicrobial activity (less host growth inhibition). The following applies: time post-induction: 4.5 h; library: site-saturation at positions 5, 18, 19, 20.
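Note: peptides expressed intracellularly from a pBAD plasmid library in pooled LB shake-flask culture, induced with 0.3% L-arabinose, DNA abundance read by NGS, three biological replicates, DESeq2 with apeglm shrinkage.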

RRIRWRPPRLPRPRPRPTMLPRP: the “shrunken log2 fold change” value was 0.101.
As for RRIRRRPPRLPRPRPRPNEKPRP, the figure is -0.023.
As for RRIRSRPPRLPRPRPRPPYQPRP, the figure is 0.144; as for RRIRQRPPRLPRPRPRPSVNPRP, -0.642.
As to RRIRFRPPRLPRPRPRPGIPPRP, the “shrunken log2 fold change” value is -0.183.
As for RRIRVRPPRLPRPRPRPDMWPRP, the figure is -0.499.
Take RRIRKRPPRLPRPRPRPCFPPRP: the “shrunken log2 fold change” value amounted to 0.123.
For RRIRWRPPRLPRPRPRPPFNPRP the value was 0.31; for RRIRLRPPRLPRPRPRPTAHPRP, 0.0391.
For the sequence RRIRHRPPRLPRPRPRPPHLPRP, the “shrunken log2 fold change” value was found to be 0.0576.
For RRIRHRPPRLPRPRPRPPQYPRP the value was -0.154; for RRIRPRPPRLPRPRPRPCYPPRP, -0.301; for RRIRFRPPRLPRPRPRPAWKPRP, -0.284.
On to RRIRIRPPRLPRPRPRPCQWPRP, for which the “shrunken log2 fold change” value was found to be 0.0525.
As for RRIRMRPPRLPRPRPRPSNVPRP, the figure is -0.259; as for RRIRNRPPRLPRPRPRPKFDPRP, -0.235.
As for RRIRFRPPRLPRPRPRPMIYPRP, the figure is -0.441.
RRIRCRPPRLPRPRPRPLNHPRP: the “shrunken log2 fold change” value is 0.519.
For RRIRFRPPRLPRPRPRPYPKPRP the value was -0.323; for RRIRWRPPRLPRPRPRPVNCPRP, 0.0456; for RRIRLRPPRLPRPRPRPHCYPRP, 0.011.
In the case of RRIRSRPPRLPRPRPRPMHLPRP, the “shrunken log2 fold change” value is -0.118.
For the sequence RRIRARPPRLPRPRPRPHYFPRP, the “shrunken log2 fold change” value was 0.0061.
For RRIRCRPPRLPRPRPRPQWAPRP the value was 0.0425; for RRIRNRPPRLPRPRPRPENYPRP, -0.553; for RRIRCRPPRLPRPRPRPIKGPRP, -0.0586.
As for RRIRSRPPRLPRPRPRPDFTPRP, the figure is 0.0298.
Take RRIRPRPPRLPRPRPRPMWCPRP: the “shrunken log2 fold change” value is -0.0757.
As for RRIRQRPPRLPRPRPRPQVRPRP, the “shrunken log2 fold change” value was -0.276.
Consider RRIRCRPPRLPRPRPRPIGMPRP, for which the “shrunken log2 fold change” value was -0.121.
For RRIRQRPPRLPRPRPRPSPYPRP the value was -0.187.
With RRIRQRPPRLPRPRPRPDRPPRP, the “shrunken log2 fold change” value was found to be 0.00639.
RRIRRRPPRLPRPRPRPGIIPRP: the “shrunken log2 fold change” value is 0.028.
Take RRIRWRPPRLPRPRPRPLHYPRP: the “shrunken log2 fold change” value was -0.369.
For RRIRWRPPRLPRPRPRPTLGPRP the value was 0.079; for RRIRYRPPRLPRPRPRPNDIPRP, -0.299.
For RRIRSRPPRLPRPRPRPFGFPRP the value was -0.137; for RRIRSRPPRLPRPRPRPKYFPRP, -0.146; for RRIRFRPPRLPRPRPRPWFPPRP, -0.0773.
As to RRIRNRPPRLPRPRPRPLIRPRP, the “shrunken log2 fold change” value was -0.0892.
For the sequence RRIRWRPPRLPRPRPRPDSRPRP, the “shrunken log2 fold change” value was -0.251.
As for RRIRIRPPRLPRPRPRPDVIPRP, the figure is -0.00836; as for RRIRQRPPRLPRPRPRPSRQPRP, -0.101.
As for RRIRIRPPRLPRPRPRPVMKPRP, the figure is 0.012.
As for RRIRARPPRLPRPRPRPDTGPRP, the figure is -0.0932; as for RRIRDRPPRLPRPRPRPKDTPRP, 0.0607.
With RRIRQRPPRLPRPRPRPNEGPRP, the “shrunken log2 fold change” value is -0.07.
Take RRIRMRPPRLPRPRPRPDEDPRP: the “shrunken log2 fold change” value was -0.0149.
On to RRIRDRPPRLPRPRPRPEHDPRP, for which the “shrunken log2 fold change” value was -0.0084.
Take RRIRCRPPRLPRPRPRPMEHPRP: the “shrunken log2 fold change” value was -0.0605.
Take RRIRMRPPRLPRPRPRPRSQPRP: the “shrunken log2 fold change” value was 0.108.
In the case of RRIRERPPRLPRPRPRPKAYPRP, the “shrunken log2 fold change” value was -0.00666.
As for RRIRDRPPRLPRPRPRPWNWPRP, the figure is 0.0868; as for RRIRIRPPRLPRPRPRPLTLPRP, -0.22.
As to RRIRRRPPRLPRPRPRPLRRPRP, the “shrunken log2 fold change” value was 0.654.
For RRIRIRPPRLPRPRPRPFELPRP the value was -0.138.
As for RRIRQRPPRLPRPRPRPFIHPRP, the “shrunken log2 fold change” value was -0.876.
For RRIRGRPPRLPRPRPRPVHQPRP the value was 0.228; for RRIRHRPPRLPRPRPRPHYCPRP, -0.0453; for RRIRTRPPRLPRPRPRPGINPRP, -0.324.
Consider RRIRNRPPRLPRPRPRPQAEPRP, for which the “shrunken log2 fold change” value was -0.155.
As for RRIRFRPPRLPRPRPRPPFLPRP, the figure is -0.0645.
As for RRIRNRPPRLPRPRPRPEDAPRP, the figure is -0.00133.

For the origin of these results see the supplement of paper PMC9112550, “Optimization of the antimicrobial peptide Bac7 by deep mutational scanning” (BMC Biology, 2022).
